Data set [1] deals with COPD mouse model. As to the kind of experiment: In vivo efficacy model of COPD (Elastin and LPS). Further details: species or system mice. The settings on record: drug combination study. The procedure: Three groups of 10 male mice were treated as follows: • 1 group of 10 mice with a vehicle. • 1 group of 10 mice with the anti-mouse TLR328G7 antibody administration (i.p., 500 μg/per mouse) on days 0, 3, 7, 10, 14, 17, 21 and 24. • 1 group of 10 mice with the positive control roflumilast (approved as […]; antagonist of PDE-4) (oral, 15 mg/kg, five times per week). All mice were treated at days 0, 7, 14 and 21 with Elastin and LPS (i.n.), to induce COPD. At day 28 mice were sacrificed for analysis. The cellular infiltrates into airways was measured by analysis of bronchoalveolar lavage (BAL) fluid by differential cell count on day 28. The oxygenation of venous blood was measured by gasometry on day 28. The level inflammatory mediators in BALF, through the analysis for protein levels of TNF-alpha, IL-6, IL-17A and IP-10 was performed by multiplex assay. […] Statistical analysis was performed on all data utilizing a Student's t test: '*' p<0.05; '**' p<0.005; '***'p<0.0005. […] All mice were treated with Elastin and LPS (i.n.), to induce COPD and sacrified as in study A. The cellular infiltrates into airways was measured by analysis of bronchoalveolar lavage (BAL) fluid by differential cell count as in Study A.

For data set [2] the following is noted: cited from earlier work.
Data set [3] deals with T1, wild type human TLR3 expressed in 293T cells (human, UniProt O15455 24-904). As to the kind of experiment: cell-based or functional assay.
Data set [4] deals with T2, recombinant human TLR3 extracellular domain (R&D Systems) (human, UniProt O15455 27-711).
T2 construct: also called rhTLR3; human rec TLR3; not shown: His tag (R&D #1487-TR)
As to the kind of experiment: SPR (Biacore T100), rhTLR3 immobilised on CM5 chip, bivalent affinity, pH 5.6.

Data set [5] concerns the target T1, wild type human TLR3 expressed in 293T …. As to the kind of experiment: cell-based or functional assay. This is another data set of the same source.
Data set [6] has as its target T2, recombinant human TLR3 extracellular …. As to the kind of experiment: SPR (Biacore T100), rhTLR3 immobilised on CM5 chip, bivalent affinity, pH 7.2.
Data set [7] concerns the target T3, TLR3 (Homo sapiens, UniProt O15455). As to the kind of experiment: 293T-TLR3-ISRE luciferase reporter gene assay. The settings on record: dsRNA TLR3 agonist. On the set-up: host or cells: 293T (ATCC #CRL-1573), stably carrying pISRE-luc. It is filed as cell-based. From the text: A reporter gene assay using as promoter ISRE (IFN-stimulated response element) and as reporter gene and protein luciferase was set up. A 293T cell line (ATCC, #CRL-1573) was stably transfected with pISRE-luc plasmid (#219089—Stratagene), further selected by cloning as inducing optimal response to IFN-alpha stimulation and referred to as control 293T-ISRE. This cell line was further stably transfected with pUNO-humanTLR3 plasmid (#puno-htlr3—InVivogen) or pUNO-mouseTLR3 plasmid (#puno-mtlr3—InVivogen) and referred to as 293T-TLR3-ISRE and 293T-mTLR3-ISRE respectively. On day 0, cells are seeded at 4×10^5 cells/mL in complete culture medium in 96-well culture plate (100 μl/well). Cells are first incubated at 37° C. for 20 hours, then 50 μL of medium are discarded and cells are activated with 100 μL/well final of increasing amounts of polyAU together with various concentrations of anti-TLR3 antibodies. Cells incubated with fresh medium will be used as background luciferase activity. Cells are incubated at 37° C. for 6 hours. 100 μL of freshly thawed Steady Glo (Promega) are added to each well, plates were incubated 10 min at RT in the dark and the light emitted in each well is quantified as Count Per Second (CPS) on a gamma-counter (TopCount) apparatus.
Antibodies were tested for inhibition of TLR3 signaling in a luciferase based reporter gene activity (293T-TLR3-ISRE). […] Briefly, dsRNA TLR3 agonists were used to induce TLR3 signaling in the reporter assay in the presence of anti-TLR3 antibodies, and TLR3 signaling was assessed.
In a further set of experiments, 293-huTLR3 cells were incubated with different concentrations of the anti-TLR3 mAbs for 1 to 2 hours (see FIG. 1A; mAb concentration is represented in axis in μg/ml on a logarithmic scale) followed by the addition to the medium of the TLR3 agonist polyAU at a concentration of 300 μg/ml. Luciferase expression was measured after 6 h. […]
Similarly the kinetics of inhibition of the antibodies was evaluated in 293T-TLR3 luciferase assay. […] Luciferase expression was measured at 6 h post poly(A:U) addition. […]

Data set [8] addresses T3, TLR3. As to the kind of experiment: SPR competition assay with polyAU in acidic buffer. It is filed as binding. On the set-up: purchased R&D Systems. The settings on record: pH 5.6. The procedure: (a) General Biacore T100 methods. SPR measurements were performed on a Biacore T100 apparatus (Biacore GE Healthcare) at 25° C. In all Biacore experiments HBS-EP+ buffer (Biacore GE Healthcare) or 10 mM sodium acetate pH 5.6, 150 mM NaCl, 0.05% P20 served as running buffer and sensorgrams were analyzed with Biaevaluation 4.1 and Biacore T100 Evaluation software. Recombinant human and mouse TLR3 were purchased from R&D Systems. (b) Protein immobilization. Recombinant TLR3 protein was immobilized covalently to carboxyl groups in the dextran layer of a Biacore Series 5 Sensor Chip CM5 (chip). The chip surface was activated with EDC/NHS (0.2M N-ethyl-N′-(3-dimethylaminopropyl) carbodiimidehydrochloride, 0.05M N-hydroxysuccinimide (Biacore GE Healthcare)). […] Deactivation of the remaining activated groups was performed using 100 mM ethanolamine pH 8 (Biacore GE Healthcare). (c) Antibody binding analysis was run using HBS-EP+ (neutral pH). Antibodies at a concentration of 10 μg/ml were injected for 2 min at a constant flow rate of 10 μl/min over the immobilized proteins and allowed to dissociate for 3 min before regeneration by a ten second injection of 10 mM NaOH, 500 mM NaCl regeneration buffer. Blank correction was performed on line by co-injecting the soluble antibodies onto the reference dextran flow cell. (d) Competition assay in acidic buffer (pH 5.6). Flow rate was set to 10 μl/min, the first antibody at a concentration of 50 μg/ml (or polyAU at 100 μg/ml) was injected for 2 min, 3 times successively in order to saturate the rhTLR3 surface. The second antibody (or polyAU at 100 μg/ml when the polyAU was added after first antibody) was then injected for 2 min also at 50 μg/ml and allowed to dissociate for 3 min before regeneration by a 15 second injection of 10 mM NaOH, 500 mM NaCl regeneration buffer. Blank correction was also performed on line and the curve using the saturating antibody (or neucleic acid) followed by an injection of buffer subtracted to remove the signal due to the dissociation of the first complex. The resulting signal was compared to that obtained by the injection of the second antibody directly onto the rhTLR3 surface.
Competition assays were conducted according to the methods described for SPR, item d) at pH 5.6.
Buffer (followed by polyAU) is represented in the lower line, while 31C3 followed by polyAU is in the upper line.

Like-named read-outs stand apart in the source and are kept apart here.

In the case of `O=C(Nc1c(Cl)cncc1Cl)c1ccc(OC(F)F)c(OCC2CC2)c1` [Roflumilast, roflumilast], in data set [1], the “BAL macrophages and lymphocytes” value is listed as “decreases in macrophages”; the BAL neutrophil infiltration result is given as “decreased infiltration of neutrophils into the airways”.
As to Etanercept, the half-life in data set [2] (after a 25 mg dose) is 70 h.
In the case of Adalimumab, in data set [2] (after a standard 40 mg dose), the half-life entry is recorded as “approximately 2 weeks” and the “half-life (range)” value is 240 to 480 h.

B1: antibody 23C8 (antibody, V domains shown)
VH: EVQLQQSGPELVKPGASVKISCKASGYSFTGYFMHWVKQSHVKSLEWIGRINPYNGATSYNQNFKDKASLTVDKSSSTSYMELHSLTSEDSAVYYCVRDDGGNYPFDYWGQGTTLTVS
VL: DIQMTQSPASLSASVGETVTITCRASENIYSYLAWYQQKQGKSPQLLVYYAKTLAEGVPSRFSGSGTGTQFSLKINSLQPEDFGSYYCQHHYGTPYTFGGGTKLEIK
notes: also called 23C8.4
As to B1, the “IC50 (µg/ml), inhibition of polyAU (300 µg/ml)-induced luciferase expression in 293-huTLR3 ISRE reporter cells” value in data set [3] was 1.83 µg/mL. Moreover, the Kd stood at 0.0103 nM in data set [4] and 0.138 nM in data set [6]. Besides, in data set [5], the “IC50, luciferase reporter inhibition test with 100 µg/ml of polyAU” value was less than 5 µg/mL.

B2: antibody 28F11 (antibody, V domains shown)
VH: EVQLQQSGPELVKPGASVKISCKASGYSFTGYYIHWVKQSHVKSLEWIGRINPYYGATSYNQNFKDKANLTVDKSSSTAYMELHSLTSDDSAVYYCARSTKLGYLDYWGQGTTLTVS
VL: DIQMTQSPASLSASVGETVTITCRASENIYSNLAWYQQKQGKSPQLLIYNAKTLAEGVPSRFSGSGSGTQYFLKINSLQPEDFGSYYCQHHYGTPFTFGGGTKLEIK
Consider B2, for which, in data set [3], the “IC50 (µg/ml), inhibition of polyAU (300 µg/ml)-induced luciferase expression in 293-huTLR3 ISRE reporter cells” value was found to be 5.56 µg/mL. Also, the Kd in data set [4] was found to be 0.335 nM; in data set [6] it was 0.65 nM.

B3: 23C8: anti-human TLR3 monoclonal antibody, IgG1; VH SEQ ID NO: 26, VL SEQ ID NO: 27 (antibody, listed as Mus musculus, V domains shown)
VH: MGWSWIFLFLLSGTAGVLSEVQLQQSGPELVKPGASVKISCKASGYSFTGYFMHWVKQSHVKSLEWIGRINPYNGATSYNQNFKDKASLTVDKSSSTSYMELHSLTSEDSAVYYCVRDDGGNYPFDYWGQGTTLTVS
VL: MSVPTQVLGLLLLWLTGARCDIQMTQSPASLSASVGETVTITCRASENIYSYLAWYQQKQGKSPQLLVYYAKTLAEGVPSRFSGSGTGTQFSLKINSLQPEDFGSYYCQHHYGTPYTFGGGTKLEIK
modifications: SIGNAL (1)..(19); SIGNAL (1)..(20)
As to B3, the “inhibition of TLR3 signaling” value in data set [7] is listed as “strongly inhibited TLR3 signaling in a dose dependent fashion”. Besides, the “antibody binding to TLR3 chip previously incubated with polyAU” value in data set [8] is given as “able to bind TLR3 even in the presence of polyAU”.

B4: 28F11: anti-human TLR3 monoclonal antibody, IgG1; VH SEQ ID NO: 18, VL SEQ ID NO: 19 (antibody, listed as Mus musculus, V domains shown)
VH: MGWSWIFLFLLSGTAGVLSEVQLQQSGPELVKPGASVKISCKASGYSFTGYYIHWVKQSHVKSLEWIGRINPYYGATSYNQNFKDKANLTVDKSSSTAYMELHSLTSDDSAVYYCARSTKLGYLDYWGQGTTLTVS
VL: MSVPTQVLGLLLLWLTGARCDIQMTQSPASLSASVGETVTITCRASENIYSNLAWYQQKQGKSPQLLIYNAKTLAEGVPSRFSGSGSGTQYFLKINSLQPEDFGSYYCQHHYGTPFTFGGGTKLEIK
modifications: SIGNAL (1)..(19); SIGNAL (1)..(20)
As to B4, the “inhibition of TLR3 signaling” value in data set [7] was “strongly inhibited TLR3 signaling in a dose dependent fashion”. In addition, the “antibody binding to TLR3 chip previously incubated with polyAU” value in data set [8] is “able to bind TLR3 even in the presence of polyAU”.

B5: antibody 34A3 (antibody, V domains shown)
VH: EIQLQQSGPELVKPGASVKVSCKASGYVFTTYSIYWVKQSHGKSLEWIGYIDPYNGDTSYNQKFKGKATLTVDKSSSTAYMHLNSLTSEDSTVYYCAREGNYYGYFDYWGQGTTLTVS
VL: QIVLTQSPALMSASPGEKVTMTCSASSSVSYMFWYQQKPRSSPKPWIYLTSNLASGVPARFSGSGSGTSYSLTISSMEAEDAATYYCQQWTGNPPTFGGGTKLEIK
notes: Mouse hybridoma antibody (Balb/c, immunization series #2); also called 34A3.5; printed 34A4, 32A4 and 34A2 in some places
Turning to B5, the Kd in data set [4] stood at 0.0517 nM; in data set [6] it was 0.00301 nM. The “IC50, luciferase reporter inhibition test with 100 µg/ml of polyAU” value in data set [5] was less than 5 µg/mL.

The values are drawn from US20140065154A1, “TLR3 BINDING AGENTS” (INNATE PHARMA, priority 2011, published 2014).
